{"source": "the nanobody polyreactivity screen of Harvey et al. (2022)", "data": [{"assay": "yeast display, Sf9 membrane polyspecificity reagent, FACS + sequencing; frameworks hold sequencing errors", "outline": "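Nanobodies from a synthetic yeast display library (Saccharomyces cerevisiae BJ5465), induced 36–48 hours with galactose, were stained 1 hour at 4 °C with 10% biotinylated, detergent-solubilized Sf9 membrane reagent, enriched on streptavidin microbeads, then FACS-sorted. Anti-HA (expression) and streptavidin (reagent binding) fluorescence set low and high (top ~1%) gates. Polyreactivity labels come from the gate of origin. Genes were colony-PCR amplified, MiSeq 2 × 250 sequenced and filtered by CDR length.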", "values": [{"sequence": "QVQLVESGRGLVQAGASLRLSCAASGRTFPYYARGRYRQAPGKERELVAAITTGGSTNYADSVKGRFTISRDNAKNTVYLQMNRLKPEDTAVYYCAKRFYRSRLNYYYWGQGTQVTVSS", "polyreactivity (PSR sort gate)": "high polyreactivity"}, {"sequence": "QVQLVESGGGLVQAGGSLRLSCAASGSIFKSYAMGLYRQAPGKEREFVASITKSGGTTYYADSVKGRFTISRDNAKNTVYLQMNSLKPEDTAVYYCAADWYRSSWTYNYWGQGTQVTVSS", "polyreactivity (PSR sort gate)": "low polyreactivity"}, {"sequence": "QDQLVESGGGLVQAGGSLRLSCAASGFTFTWNAMGWYRQAPGKERELVAGITRGGSTNYADSVKGRFTISRDNAKNTVYLQMNSLKPEDTAVYYCNVSFYFHHAGYDYWGQGTQVTVSS", "polyreactivity (PSR sort gate)": "low polyreactivity"}, {"sequence": "QVQLVESGGGVVQAGGSLRLSCAASGSIFRRNAMGWYRQAPGKERELVAAISWTTGSTYYADSVKGRFTISRDNAKNTVYLLMNSLKAEDTSVYYCAAVIRSRYSYYEYDFWGQGTKVTVSS", "polyreactivity (PSR sort gate)": "high polyreactivity"}, {"sequence": "QVQLVESGGCLVQAGGSLRLSCAASGSTFDYYAMGWYTQAPGKERELVAAISSSGSSTYYADSVKGRFTISRDNAKNTVYLQMNSLKPEDTAVYYCAKGTNYRDDYWGQGTQVTVSS", "polyreactivity (PSR sort gate)": "low polyreactivity"}, {"sequence": "QVQLVESGGGLVQAGGSLRLSCAASGFIFDVYAMGWYRQAPGKERELVAAISSSGGRTYYADSVKGRFTISRDNAKNTVYLQMNSLKPEDSAVYYCAAKTHSRTKVYTADYWGQGTQVTVSS", "polyreactivity (PSR sort gate)": "high polyreactivity"}, {"sequence": "QVQLVESGGGLVQAGGSLRLSCAASGITLGYYAMGWYRQAPGKERELVAAISYRGGNTYYADSVKGRFTISRDNAMKTVYLQMNSLKPEDSAVYYCAAYDEYYGYDYWGQGTQVTVSS", "polyreactivity (PSR sort gate)": "low polyreactivity"}, {"sequence": "QVQLVESGGGLVQAGGSLRLSCSASGSTSYYYAMGWYRQAPGKERELVATISTTGAGTYYADSVKGRFTISRDNAKTTVYLQMNILKPEDTAVFYCAKDGKASRDDAEYYYWGQGTQVTVSS", "polyreactivity (PSR sort gate)": "low polyreactivity"}, {"sequence": "QVQLVESGVRLVQAGGSLLLSCAASGFTFHKNDMGWYRQAPGKERELVATISKSGGSTYYADSVKGRFTISRDNAMNTVYLQMNSLKPEDTAVYYCARRYRDYGRYGYWGQGTQVTVSS", "polyreactivity (PSR sort gate)": "high polyreactivity"}, {"sequence": "QVHLVESGGGIVQAGGSLRLSCAASGRTFVVYAMGWYRPATGKQLELVAAIRRIDGRTYYADSVKGRFTISRDNAKNTVYLQMNCLKPEDTAVYYCAADWVGATGYLYGYWGQGNQVTVSS", "polyreactivity (PSR sort gate)": "low polyreactivity"}, {"sequence": "QDQLVESGGGLVQAGGSLRLSCAASGSTFTRNSMGRYRQAPWKERELVAVISSRGGRTYYADSVKGRFTISRDNAKNSVYLPMNSLKPDDTAVYYCAARYVIPLGNTYDYWGQGTQVNVSS", "polyreactivity (PSR sort gate)": "high polyreactivity"}, {"sequence": "QVQLVESGGGLVQAGGSLRLICAASGRTFSSYSMGWYRQAPGKERELVAAISRSGARTYYADSVKGRFTISRDNAKNTFYVQMNSLKPEDTAVYSCAGVTVAGYDYWGQGTEVTVSS", "polyreactivity (PSR sort gate)": "high polyreactivity"}, {"sequence": "QVQLVESGGGLVQAGGSLRLSCAASGYIFNLNAMGWYRQAPGKERELVAAITRSGGSTYYADSVKGRFTISRDNAKNTVYLQMNSQKPEDTAVYYCAARGPYYRPWYKYDYWGQGTQVTVSS", "polyreactivity (PSR sort gate)": "high polyreactivity"}, {"sequence": "QVQLVESGGGLVQSGGSLRLSCAASGGTFRSYAMGWYIQAPGKERELVYAIRRSGGSTYYADSVKGRFTISRDNTKNTVYLQMNSLKPEDTAVYYCAARGYNSRRIWKYYYWGQGTQVTVTS", "polyreactivity (PSR sort gate)": "high polyreactivity"}, {"sequence": "QVQLVESGGGLVQAGGSLRLSCAASGSTFVQYTMGWYRQAPGKERELVAVITGGDGSTYYADSVKGRFTISRDNAKNTVYLLMNSLKPEDTAVYYCNADVYDYLRGGYEFDYWGQGTQVTVSS", "polyreactivity (PSR sort gate)": "low polyreactivity"}, {"sequence": "QVQLVESGGGLVQAGGSLRLSCAASGRISFRYAMGWYRQAPGKERELVAAINRGGITNYADSVKGRFTISRDNAKNTVYLQMNSLKPEDTAVYYCAARYASPRYKSKMDYWGQGTQVTVSS", "polyreactivity (PSR sort gate)": "high polyreactivity"}, {"sequence": "QVQLVESGGGLVQAGGSLRLSCDASGSTFVRYVMRWYRHAPGKEMELVAAISRRGGSTYYADSVKGRFTISRDNAKNTVYLQMNSLKPEDTAVYYCARTVCYRTLLESDSCGQGTQVTVSS", "polyreactivity (PSR sort gate)": "high polyreactivity"}, {"sequence": "QVQLVESGGGLVQAGGSLRLSCAASGSIFVGNAMGWYRQAPGKERELVAAISSGGSTYYADSVKGRFTISRDNAKNTVYLQMNSLKPEDTAVYYCAAYYVRRYSSRPKDDYWGQGTQVTVSS", "polyreactivity (PSR sort gate)": "low polyreactivity"}, {"sequence": "QVQLVESGGGLVQAGGSLRLSCAASGRTFYYYAMGWYRQAPGKERELVAVIRSSGDSTYYADSVKGRFTISRDNAKNTVYLQMNSLKPEDTAVYYCNADDWAYGMDYWGQGTQVTVSS", "polyreactivity (PSR sort gate)": "low polyreactivity"}, {"sequence": "QVQLVESGGGLVQAGGSLRLRCAASGSNFKHNDMGWSRPAPGKERELVAAISRSGGSTYYADSVKGRFTISRDNGKNTVYLPMNSLKPEDTAVYYCNAGRRTGRYGYWGQGTQVTVSS", "polyreactivity (PSR sort gate)": "high polyreactivity"}, {"sequence": "QDQLVESGGGLVQEGGSLRLSCAASGSTFPYNAMGWYRQAPGKERELVAAITRRAGRTYYADSVKGRFTISRDNAKNTVYLQLNSLKTEDTAVYYCAKSYQRGVYHYVYWGQVTQVTVSS", "polyreactivity (PSR sort gate)": "high polyreactivity"}, {"sequence": "QVQLVESGGGLVQAGGSLRLSCAASGKTFPANAMGWYRPAPGKERELVADISVSDGSTYYADSVKGRFTISRDNAKNTVYLQMNSLKPQDTAVYYCNARKRPNFYVKSFTQIGGRFDYWGQGTQVTVSS", "polyreactivity (PSR sort gate)": "low polyreactivity"}, {"sequence": "QVQLVESGGGLVQAGGSLRLSCAASGITFGSNAMGWYRQAPGKERELVAAIRYSTGSTYYADSVKGRFTISRDNAKNTVYLQMNRLKPEDTAVYYCAKGKNRYTWYGMGYWGQGTQVTVSS", "polyreactivity (PSR sort gate)": "high polyreactivity"}, {"sequence": "QVQLVESGGGLVQAGGSLRLSCAASGSTFYRNAMGWYRQAPGKERELVAAISTRGSSTYYADSVKGRFTISRDNAKNTVYLQMNSLKPEDTAVYYCTADGIYPVLKFDYDYWGQGTQVTVSS", "polyreactivity (PSR sort gate)": "low polyreactivity"}, {"sequence": "QVQLVESGGGLVQAGGSLRLSCAASGSTFGWYAMGWYRQAPGKERELVATISSGGSTYYADSVKGRFTISRDNAKNTVYLQMNCLKPEDTAVYYCAADYLTPWVYWFSYGLDYWGQGTQVTVSS", "polyreactivity (PSR sort gate)": "low polyreactivity"}, {"sequence": "QVQLVESGGGLVQAGGSLRLSCAGSGYIFAYNTIGWYRQAPGKERELVAAISRSGGSTYYPDSVKGRFTISRDNAKNTVYLQMNSLKPEDTAVYYCAARYSGYRVGQRSFCYWGQGTQVTVSS", "polyreactivity (PSR sort gate)": "high polyreactivity"}, {"sequence": "QVQLVESGGGLVQAGGSLRLSCAASGSTFVLYANGWYRQAPGKERELVAASTRRGGDTYYADSVKGRFTISRDNATNTVYLQMNSLKPEDTAVDYCATDYTTYGRYYYWGQGTQVTVSS", "polyreactivity (PSR sort gate)": "low polyreactivity"}, {"sequence": "QVQLVESGGGLVQAGGSLRLSCAASGSIFATYAMGWYRQAPGKERELVADISWNGGSTYYADSVKGRFTISRDNAKNTVYLQMNSLKPEDTAVYYCAVGYWGRFGFRGYGYWGQGTQVTVSS", "polyreactivity (PSR sort gate)": "low polyreactivity"}, {"sequence": "QVQLVESGGGLVHAGGSLLLSCSASGSIFTVNAMGWYRQAPGKERELVAAISSGGSTHYADSVKGRFTISRDNAKNTVYLQMISLKPEDTAVYYCAAVYVPYYGYYTRYDYWGQGTQVTVSS", "polyreactivity (PSR sort gate)": "low polyreactivity"}, {"sequence": "QLQLVESGGGLVQAGGSLRISCAASGSTFGRNAMGWYRQAPGKERELVAVISKSGGSTYYADSVKGRFTISRDNAKNTVYLQMNSLKPEDTAVYYCAARYYSYWREYQHFDYWGQGTQVTVSS", "polyreactivity (PSR sort gate)": "high polyreactivity"}, {"sequence": "QVQLVESGGGLVQAGGSLRLSCAASGSIFRVYAMGWYRQAPGKERELVAAITNGGNTNYADSVKGRFTISRDNAKNTVYLQMNSLKPEDTAVYYCAATLHRYWYRLYYYWGQGTQVTVSS", "polyreactivity (PSR sort gate)": "high polyreactivity"}, {"sequence": "QVQIVESGGGLVQAGGSLRLSCDASGFIFYYYAMGWYRQAPGKERELVATITSGGGSTYYADSVKGRFTISRDNAKNTVYLQMNSLKPEDTAVYYCAAKGPYYKSSRTGDYWGQGTQVTVSS", "polyreactivity (PSR sort gate)": "low polyreactivity"}, {"sequence": "QVQLLESGGGLVQAGGSLRLRCAASGFIISRYAMAWYRQAPGKEMELVAGITGSGGSTYYADSVKGRFTISRDNAKNTVYLQMNSLKPEDTAVYYCAAGRRGGALLFYYWGQGTLVTVSS", "polyreactivity (PSR sort gate)": "high polyreactivity"}, {"sequence": "QGQLVESGGGLVQAGGSLRLSCAASGNTFNVYAMGWYRQAPGKARELVAAITLSGGSTYYADSVKGRFTISRDNSKNTVYLQMNSLKPEDTAFYYCNAEEDGTDYDYWGQGTQVTVSS", "polyreactivity (PSR sort gate)": "low polyreactivity"}, {"sequence": "QVQLVESGGGLVQAGSSLRLSCAASGSTYAFYALGWYRQAPGKAMELVDAITSGGTTNYADSVKGRFTISRDNAKNTVYFQMISLKPEDTAVYYCNAYYLGWYRVRAVTGYDYWGQGTQVTLSS", "polyreactivity (PSR sort gate)": "low polyreactivity"}, {"sequence": "QVQLVESGGGLVQAGGSLRLSCAASGFIFASYTMGWYRQAPGKERELVASISRRRGSTYYADSVKGRFTISRDIAKNTVYLQMNILKPEDTAVYYCAAERLTIDYDYWGQGTQVTVSS", "polyreactivity (PSR sort gate)": "high polyreactivity"}, {"sequence": "QVQLVESGGGLVQAGGSLRLSCAASGSTFPRNDMGWYRQAPGKERELVAAISRGGSTNNADSVKGRFTISRDNAKNTVYLQMNSLKPEDTAVYYCAAQIFESAYGMDYWGQGTQVTVSS", "polyreactivity (PSR sort gate)": "low polyreactivity"}, {"sequence": "QAQLQESGGSLVQAGGGLRLSCAASGYISVGSVMGWYRQAPSKERELVASIDQGANTNYADSVKGRFTISRDNAKNYVYLQMNSLKPEDTAVYYCATETTYILNYWGQGTQVTVSS", "polyreactivity (PSR sort gate)": "low polyreactivity"}, {"sequence": "QVQLVESGGGLVQAAGSLRISCAASGRTFATNAMGWYRQAPGKERELVAVISASGGSTYYADSVKGRFTISRDNAKNTVYLQMNSLKPEDTAVYYCAADVYRRYDYWGQGTQVTVSS", "polyreactivity (PSR sort gate)": "high polyreactivity"}, {"sequence": "QVQLVESGGGLVQAGGSLRLSCAASGRTFHGYAMGWYRQAPGKERELVARINWSDGRTYYADSVKGRFTISRDNAKNTVFLQMNSLKPEDTAVYYCAADKTVSYAPAWYYYWGQGTQVTVSS", "polyreactivity (PSR sort gate)": "low polyreactivity"}, {"sequence": "QVQLVESGGGLVQAGGSLRLSCAASGRTFRYYTMGWYRQAPGKEREFVAAISSTGGTYYADSVKGRFTISRDNAKNTVYLLMNSLNPEDTAVYYCAATFIQVVVNVQLYDYDYWGQGTQVTVSS", "polyreactivity (PSR sort gate)": "low polyreactivity"}]}]}
